From patent publication US20260226179A1 (MAB DESIGNS, published 2026)
“And” between values parts separate entries of the source, which are not always exact repeats. Equal values may be shown once. Values belong to the binder of their own block, whether it stands above or below them.

Legend:
[1] = target: T1, human membrane-bound IL-6R subunit alpha (human, UniProt P08887 20-468); experiment: cell-based or functional assay
T1 sequence: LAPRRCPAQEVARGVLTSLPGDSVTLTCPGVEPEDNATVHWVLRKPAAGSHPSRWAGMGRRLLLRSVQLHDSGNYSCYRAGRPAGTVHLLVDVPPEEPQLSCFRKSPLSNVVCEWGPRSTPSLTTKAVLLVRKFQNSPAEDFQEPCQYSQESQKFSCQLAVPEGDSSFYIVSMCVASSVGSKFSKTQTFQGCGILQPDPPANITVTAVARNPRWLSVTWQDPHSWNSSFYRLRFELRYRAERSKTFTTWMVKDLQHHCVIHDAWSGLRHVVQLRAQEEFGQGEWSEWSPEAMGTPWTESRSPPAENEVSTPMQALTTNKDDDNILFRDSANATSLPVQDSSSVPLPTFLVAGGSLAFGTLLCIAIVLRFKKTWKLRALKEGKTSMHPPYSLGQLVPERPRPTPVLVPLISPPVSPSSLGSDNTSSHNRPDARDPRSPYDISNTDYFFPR

human soluble IL-6R = target: T2, human soluble IL-6R (human, UniProt P08887 20-357); experiment: cell-based or functional assay
T2 sequence: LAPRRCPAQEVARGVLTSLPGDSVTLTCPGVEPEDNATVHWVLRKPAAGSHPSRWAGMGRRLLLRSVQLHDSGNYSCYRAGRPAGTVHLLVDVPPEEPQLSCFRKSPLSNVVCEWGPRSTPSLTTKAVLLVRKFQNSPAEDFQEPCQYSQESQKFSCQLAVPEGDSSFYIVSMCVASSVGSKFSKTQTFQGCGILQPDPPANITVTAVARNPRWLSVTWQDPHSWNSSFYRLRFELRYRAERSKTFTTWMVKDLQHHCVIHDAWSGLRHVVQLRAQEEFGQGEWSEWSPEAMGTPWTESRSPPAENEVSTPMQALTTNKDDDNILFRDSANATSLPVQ

- IC50 for the inhibition of IL-6 classical signalling-induced proliferation (Ba/F3_gp130_IL-6R cells + IL-6) [1]: > 10 mg/L
- IC50 for the inhibition of IL-6 mixed signalling-induced proliferation (Ba/F3_gp130_IL-6R cells + IL-6 + sIL-6R) [1]: > 10 µg/ml and > 53 nM
- Proliferation in % (Ba/F3_gp130 cells, IL-6 + sIL-6R = 100%; IL-6 trans signalling) at IgG 10 ng/ml (human soluble IL-6R): 99.2%
- Proliferation in % (Ba/F3_gp130 cells, IL-6 + sIL-6R = 100%; IL-6 trans signalling) at IgG 100 ng/ml (human soluble IL-6R): 92.2%
- Proliferation in % (Ba/F3_gp130 cells, IL-6 + sIL-6R = 100%; IL-6 trans signalling) at IgG 300 ng/ml (human soluble IL-6R): 88.5%
- Proliferation in % (Ba/F3_gp130 cells, IL-6 + sIL-6R = 100%; IL-6 trans signalling) at IgG 500 ng/ml (human soluble IL-6R): 78.3%
- Proliferation in % (Ba/F3_gp130 cells, IL-6 + sIL-6R = 100%; IL-6 trans signalling) at IgG 700 ng/ml (human soluble IL-6R): 72.3%
- Proliferation in % (Ba/F3_gp130 cells, IL-6 + sIL-6R = 100%; IL-6 trans signalling) at IgG 1,000 ng/ml (human soluble IL-6R): 57.7%
- Proliferation in % (Ba/F3_gp130 cells, IL-6 + sIL-6R = 100%; IL-6 trans signalling) at IgG 10,000 ng/ml (human soluble IL-6R): 10.8%
B2: anti-IL-6R IgG antibody C19 (antibody, V domains shown)
VH: EVKLMESGGGLVQPGGSLKLSCAASGFTFSNYGMSWVRQTPDKRLELVAIMNSKGGSTYYPDSVMGRFTISRDNAKNTLYLQMSSLKSEDTAMYYCARDGYYTMDYWGQGTSVTVSS
VL: DIVLTQSPASLAVSLGQRATISCRASKSVDSFGNSFMHWYQQKPGQSPRLLIFLASNLESGVPARFSGSGSRTDFTLTIDPVEADDAATYYCQQNNEDPYTFGGGTKLEIK

- IC50 for the inhibition of IL-6 classical signalling-induced proliferation (Ba/F3_gp130_IL-6R cells + IL-6) [1]: > 10 mg/L
- IC50 for the inhibition of IL-6 mixed signalling-induced proliferation (Ba/F3_gp130_IL-6R cells + IL-6 + sIL-6R) [1]: > 10 µg/ml and > 53 nM
- Proliferation in % (Ba/F3_gp130 cells, IL-6 + sIL-6R = 100%; IL-6 trans signalling) at IgG 10 ng/ml (human soluble IL-6R): 101%
- Proliferation in % (Ba/F3_gp130 cells, IL-6 + sIL-6R = 100%; IL-6 trans signalling) at IgG 100 ng/ml (human soluble IL-6R): 98.9%
- Proliferation in % (Ba/F3_gp130 cells, IL-6 + sIL-6R = 100%; IL-6 trans signalling) at IgG 300 ng/ml (human soluble IL-6R): 89.1%
- Proliferation in % (Ba/F3_gp130 cells, IL-6 + sIL-6R = 100%; IL-6 trans signalling) at IgG 500 ng/ml (human soluble IL-6R): 75.3%
- Proliferation in % (Ba/F3_gp130 cells, IL-6 + sIL-6R = 100%; IL-6 trans signalling) at IgG 700 ng/ml (human soluble IL-6R): 66.9%
- Proliferation in % (Ba/F3_gp130 cells, IL-6 + sIL-6R = 100%; IL-6 trans signalling) at IgG 1,000 ng/ml (human soluble IL-6R): 48.1%
- Proliferation in % (Ba/F3_gp130 cells, IL-6 + sIL-6R = 100%; IL-6 trans signalling) at IgG 10,000 ng/ml (human soluble IL-6R): 11.6%
B4: anti-IL-6R IgG antibody C12 (antibody, V domains shown)
VH: EVKLMESGGGLVQPGGSLKLSCAASGFTFSNYGMSWVRQTPDKRLEWVANINSNGGSTYYPDSVKGRFTISRDNAQNTLYLQMSSLKSEDTAMYYCTRDGNFVSDYWGQGTTLTVSS
VL: DIVLTQSPASLAVSPGQRATISCRASESVDSYGNSFMNWYQQKPGQPPKLLIYLASNLESGVPARFSGSGSRTDFTLTIDPVEADDAATYYCQQNNEDPYTFGGGTKLEIK

- IC50 for the inhibition of IL-6 classical signalling-induced proliferation (Ba/F3_gp130_IL-6R cells + IL-6) [1]: > 10 mg/L
- IC50 for the inhibition of IL-6 mixed signalling-induced proliferation (Ba/F3_gp130_IL-6R cells + IL-6 + sIL-6R) [1]: > 10 µg/ml and > 53 nM
- Proliferation in % (Ba/F3_gp130 cells, IL-6 + sIL-6R = 100%; IL-6 trans signalling) at IgG 10 ng/ml (human soluble IL-6R): 98.2%
- Proliferation in % (Ba/F3_gp130 cells, IL-6 + sIL-6R = 100%; IL-6 trans signalling) at IgG 100 ng/ml (human soluble IL-6R): 93.1%
- Proliferation in % (Ba/F3_gp130 cells, IL-6 + sIL-6R = 100%; IL-6 trans signalling) at IgG 300 ng/ml (human soluble IL-6R): 88.3%
- Proliferation in % (Ba/F3_gp130 cells, IL-6 + sIL-6R = 100%; IL-6 trans signalling) at IgG 500 ng/ml (human soluble IL-6R): 82.6%
- Proliferation in % (Ba/F3_gp130 cells, IL-6 + sIL-6R = 100%; IL-6 trans signalling) at IgG 700 ng/ml (human soluble IL-6R): 82.5%
- Proliferation in % (Ba/F3_gp130 cells, IL-6 + sIL-6R = 100%; IL-6 trans signalling) at IgG 1,000 ng/ml (human soluble IL-6R): 72.9%
- Proliferation in % (Ba/F3_gp130 cells, IL-6 + sIL-6R = 100%; IL-6 trans signalling) at IgG 10,000 ng/ml (human soluble IL-6R): 25.8%
B5: anti-IL-6R IgG antibody C09 (antibody, V domains shown)
VH: EVQLVESGGDLVQPGGSLKLSCAASGFTFSNYGMSWVRQTPDKRLELVAAINSNGGSTYYPDSVKGRFTISRDNAKNTLYLQMSSLKSEDTAMYYCARDGNYVSDYWGQGTTLTVSS
VL: DIVLTQSPASLAVSLGQRATISCRASESVDSYGNSFMHWYQQKPGQPPKLLIYLASNLESGVPARFSGSGSRTDFTLTIDPVEADDAATYYCQQNNEDPWTFGGGTKLEIK

More lines, now with the values behind:

B1: anti-IL-6R IgG antibody C07 (antibody, V domains shown)
VH: EVKLVESGGGLVQPGGSLKLSCAASGFTFSSYAMSWVRQTADKRLELVANINSNGGSTYYPDSVKGRFTISRDNAKNTLFLQMSSLKSEDTAMYYCAREGYYTMDYWGQGTSVTVSS
VL: DIVLTQSPASLAVSPGQRATISCRASESVDSYGNSFMNWYQQKPGQPPKLLIYLASNLESGVPARFSGSGSRTDFTLTIDPVEADDAATYYCQQNNEDPYTFGGGTKLEIK
- IC50 for the inhibition of IL-6 classical signalling-induced proliferation (Ba/F3_gp130_IL-6R cells + IL-6) [1]: > 10 mg/L
- IC50 for the inhibition of IL-6 mixed signalling-induced proliferation (Ba/F3_gp130_IL-6R cells + IL-6 + sIL-6R) [1]: > 10 µg/ml and > 53 nM
- Proliferation in % (Ba/F3_gp130 cells, IL-6 + sIL-6R = 100%; IL-6 trans signalling) at IgG 10 ng/ml (human soluble IL-6R): 98.8%
- Proliferation in % (Ba/F3_gp130 cells, IL-6 + sIL-6R = 100%; IL-6 trans signalling) at IgG 100 ng/ml (human soluble IL-6R): 92.2%
- Proliferation in % (Ba/F3_gp130 cells, IL-6 + sIL-6R = 100%; IL-6 trans signalling) at IgG 300 ng/ml (human soluble IL-6R): 78.3%
- Proliferation in % (Ba/F3_gp130 cells, IL-6 + sIL-6R = 100%; IL-6 trans signalling) at IgG 500 ng/ml (human soluble IL-6R): 70.2%
- Proliferation in % (Ba/F3_gp130 cells, IL-6 + sIL-6R = 100%; IL-6 trans signalling) at IgG 700 ng/ml (human soluble IL-6R): 55.3%
- Proliferation in % (Ba/F3_gp130 cells, IL-6 + sIL-6R = 100%; IL-6 trans signalling) at IgG 1,000 ng/ml (human soluble IL-6R): 41.2%
- Proliferation in % (Ba/F3_gp130 cells, IL-6 + sIL-6R = 100%; IL-6 trans signalling) at IgG 10,000 ng/ml (human soluble IL-6R): 9.6%

B3: anti-IL-6R IgG antibody C20 (antibody, V domains shown)
VH: EVKLMESGGGLVQPGGSLKLSCAASGFTFSNYGMSWVRQTPDKRLELVAIINSNGGSTYYPDSVKGRFTISRDNAKNTLYLQMSSLKSEDTAIYYCARDGNFVSDYWGQGTTLTVSS
VL: DIVLTQSPASLAVSLGQRATISCRASESVDSYGNRFLNWYQQKPGQPPKLLIYLASNLESGVPARFSGSGSRTDFTLTIDPVEADDAATYYCQQNNEDPYTFGGGTKLEIK
- IC50 for the inhibition of IL-6 classical signalling-induced proliferation (Ba/F3_gp130_IL-6R cells + IL-6) [1]: > 10 mg/L
- IC50 for the inhibition of IL-6 mixed signalling-induced proliferation (Ba/F3_gp130_IL-6R cells + IL-6 + sIL-6R) [1]: > 10 µg/ml and > 53 nM
- Proliferation in % (Ba/F3_gp130 cells, IL-6 + sIL-6R = 100%; IL-6 trans signalling) at IgG 10 ng/ml (human soluble IL-6R): 103%
- Proliferation in % (Ba/F3_gp130 cells, IL-6 + sIL-6R = 100%; IL-6 trans signalling) at IgG 100 ng/ml (human soluble IL-6R): 88.5%
- Proliferation in % (Ba/F3_gp130 cells, IL-6 + sIL-6R = 100%; IL-6 trans signalling) at IgG 300 ng/ml (human soluble IL-6R): 84.8%
- Proliferation in % (Ba/F3_gp130 cells, IL-6 + sIL-6R = 100%; IL-6 trans signalling) at IgG 500 ng/ml (human soluble IL-6R): 52.8%
- Proliferation in % (Ba/F3_gp130 cells, IL-6 + sIL-6R = 100%; IL-6 trans signalling) at IgG 700 ng/ml (human soluble IL-6R): 36.1%
- Proliferation in % (Ba/F3_gp130 cells, IL-6 + sIL-6R = 100%; IL-6 trans signalling) at IgG 1,000 ng/ml (human soluble IL-6R): 16.3%
- Proliferation in % (Ba/F3_gp130 cells, IL-6 + sIL-6R = 100%; IL-6 trans signalling) at IgG 10,000 ng/ml (human soluble IL-6R): 6.5%
